This data set deals with the molecule itself. The data set is described as follows: mass photometry; 100 nM protein diluted in PBS (pH 7.4), room temperature, 60 s acquisition, TwoMP mass photometer; monomer to dimer.

Consider eight proteins from article PMC11332825, “Residues in the fructose-binding pocket are required for ketohexokinase-A activity” (The Journal of Biological Chemistry, 2024).

B1: human ketohexokinase-A (KHK-A), wild type (enzyme)
chain: QILCVGLVVLDVISLVDKYPKEDSEIRCLSQRWQRGGNASNSCTVLSLLGAPCAFMGSMAPGHVADFVLDDLRRYSVDLRYTVFQTTGSVPIATVIINEASGSRTILYYDRSLPDVSATDFEKVDLTQFKWIHIEGRNASEQVKMLQRIDAHNTRQPPEQKIRVSVEVEKPREELFQLFGYGDVVFVSKDVAKHLGFQSAEEALRGLYGRVRKGAVLVCAWAEEGADALGPDGKLLHSDAFPPPRVVDTLGAGDTFNASVIFSLSQGRSVQEALRFGCQVAGKKCGLQGFDGIV
notes: ketohexokinase, splice isozyme A (KHK-A), human; good electron density for residues 3 to 298; theoretical molecular weight of the monomer printed as 34.65 kDa; Cloned into pET-28b(+) by GenScript; also called WT KHK-A; WT; source: E. coli BL21-CodonPlus-RIL, purified (Ni-NTA, Superdex 200 gel filtration)
As for B1, the “stoichiometry N” value stood at 2.

B2: human ketohexokinase-A N45A (enzyme)
chain: QILCVGLVVLDVISLVDKYPKEDSEIRCLSQRWQRGGNASASCTVLSLLGAPCAFMGSMAPGHVADFVLDDLRRYSVDLRYTVFQTTGSVPIATVIINEASGSRTILYYDRSLPDVSATDFEKVDLTQFKWIHIEGRNASEQVKMLQRIDAHNTRQPPEQKIRVSVEVEKPREELFQLFGYGDVVFVSKDVAKHLGFQSAEEALRGLYGRVRKGAVLVCAWAEEGADALGPDGKLLHSDAFPPPRVVDTLGAGDTFNASVIFSLSQGRSVQEALRFGCQVAGKKCGLQGFDGIV
notes: ketohexokinase, splice isozyme A (KHK-A), human, with N45A; Expressed and purified as described for WT KHK-A; PDB 2HLZ is the wild-type parent; source: E. coli BL21-CodonPlus-RIL, purified (Ni-NTA, Superdex 200 gel filtration)
Regarding B2, the “stoichiometry N” value was 2.

B3: human ketohexokinase-A K174A (enzyme)
chain: QILCVGLVVLDVISLVDKYPKEDSEIRCLSQRWQRGGNASNSCTVLSLLGAPCAFMGSMAPGHVADFVLDDLRRYSVDLRYTVFQTTGSVPIATVIINEASGSRTILYYDRSLPDVSATDFEKVDLTQFKWIHIEGRNASEQVKMLQRIDAHNTRQPPEQKIRVSVEVEAPREELFQLFGYGDVVFVSKDVAKHLGFQSAEEALRGLYGRVRKGAVLVCAWAEEGADALGPDGKLLHSDAFPPPRVVDTLGAGDTFNASVIFSLSQGRSVQEALRFGCQVAGKKCGLQGFDGIV
notes: ketohexokinase, splice isozyme A (KHK-A), human, with K174A; Expressed and purified as described for WT KHK-A; PDB 2HLZ is the wild-type parent; source: E. coli BL21-CodonPlus-RIL, purified (Ni-NTA, Superdex 200 gel filtration)
B3: the “stoichiometry N” value amounted to 2.

B4: human ketohexokinase-A N42A (enzyme)
chain: QILCVGLVVLDVISLVDKYPKEDSEIRCLSQRWQRGGAASNSCTVLSLLGAPCAFMGSMAPGHVADFVLDDLRRYSVDLRYTVFQTTGSVPIATVIINEASGSRTILYYDRSLPDVSATDFEKVDLTQFKWIHIEGRNASEQVKMLQRIDAHNTRQPPEQKIRVSVEVEKPREELFQLFGYGDVVFVSKDVAKHLGFQSAEEALRGLYGRVRKGAVLVCAWAEEGADALGPDGKLLHSDAFPPPRVVDTLGAGDTFNASVIFSLSQGRSVQEALRFGCQVAGKKCGLQGFDGIV
notes: ketohexokinase, splice isozyme A (KHK-A), human, with N42A; Expressed and purified as described for WT KHK-A; PDB 2HLZ is the wild-type parent; also called KHK-A N42A; source: E. coli BL21-CodonPlus-RIL, purified (Ni-NTA, Superdex 200 gel filtration)
Take B4: the “stoichiometry N” value worked out at 2.

B5: human ketohexokinase-A D15A (enzyme)
chain: QILCVGLVVLAVISLVDKYPKEDSEIRCLSQRWQRGGNASNSCTVLSLLGAPCAFMGSMAPGHVADFVLDDLRRYSVDLRYTVFQTTGSVPIATVIINEASGSRTILYYDRSLPDVSATDFEKVDLTQFKWIHIEGRNASEQVKMLQRIDAHNTRQPPEQKIRVSVEVEKPREELFQLFGYGDVVFVSKDVAKHLGFQSAEEALRGLYGRVRKGAVLVCAWAEEGADALGPDGKLLHSDAFPPPRVVDTLGAGDTFNASVIFSLSQGRSVQEALRFGCQVAGKKCGLQGFDGIV
notes: ketohexokinase, splice isozyme A (KHK-A), human, with D15A; Expressed and purified as described for WT KHK-A; PDB 2HLZ is the wild-type parent; also called KHK-A D15A; source: E. coli BL21-CodonPlus-RIL, purified (Ni-NTA, Superdex 200 gel filtration)
For the protein B5, the “stoichiometry N” value was determined as 2.

B6: human ketohexokinase-A N42K (enzyme)
chain: QILCVGLVVLDVISLVDKYPKEDSEIRCLSQRWQRGGKASNSCTVLSLLGAPCAFMGSMAPGHVADFVLDDLRRYSVDLRYTVFQTTGSVPIATVIINEASGSRTILYYDRSLPDVSATDFEKVDLTQFKWIHIEGRNASEQVKMLQRIDAHNTRQPPEQKIRVSVEVEKPREELFQLFGYGDVVFVSKDVAKHLGFQSAEEALRGLYGRVRKGAVLVCAWAEEGADALGPDGKLLHSDAFPPPRVVDTLGAGDTFNASVIFSLSQGRSVQEALRFGCQVAGKKCGLQGFDGIV
notes: ketohexokinase, splice isozyme A (KHK-A), human, with N42K; Expressed and purified as described for WT KHK-A; PDB 2HLZ is the wild-type parent; source: E. coli BL21-CodonPlus-RIL, purified (Ni-NTA, Superdex 200 gel filtration)
For B6, the “stoichiometry N” value amounted to 2.

B7: human ketohexokinase-A R141E (enzyme)
chain: QILCVGLVVLDVISLVDKYPKEDSEIRCLSQRWQRGGNASNSCTVLSLLGAPCAFMGSMAPGHVADFVLDDLRRYSVDLRYTVFQTTGSVPIATVIINEASGSRTILYYDRSLPDVSATDFEKVDLTQFKWIHIEGENASEQVKMLQRIDAHNTRQPPEQKIRVSVEVEKPREELFQLFGYGDVVFVSKDVAKHLGFQSAEEALRGLYGRVRKGAVLVCAWAEEGADALGPDGKLLHSDAFPPPRVVDTLGAGDTFNASVIFSLSQGRSVQEALRFGCQVAGKKCGLQGFDGIV
notes: ketohexokinase, splice isozyme A (KHK-A), human, with R141E; Results and legends print R141E; the abstract and the discussion speak of R141A / alanine at R141; PDB 2HLZ is the wild-type parent; source: E. coli BL21-CodonPlus-RIL, purified (Ni-NTA, Superdex 200 gel filtration)
Take B7: the “stoichiometry N” value amounted to 2.

B8: human ketohexokinase-A R141E/K174A double mutant (enzyme)
chain: QILCVGLVVLDVISLVDKYPKEDSEIRCLSQRWQRGGNASNSCTVLSLLGAPCAFMGSMAPGHVADFVLDDLRRYSVDLRYTVFQTTGSVPIATVIINEASGSRTILYYDRSLPDVSATDFEKVDLTQFKWIHIEGENASEQVKMLQRIDAHNTRQPPEQKIRVSVEVEAPREELFQLFGYGDVVFVSKDVAKHLGFQSAEEALRGLYGRVRKGAVLVCAWAEEGADALGPDGKLLHSDAFPPPRVVDTLGAGDTFNASVIFSLSQGRSVQEALRFGCQVAGKKCGLQGFDGIV
notes: ketohexokinase, splice isozyme A (KHK-A), human, with R141E and K174A; Expressed and purified as described for WT KHK-A; PDB 2HLZ is the wild-type parent; source: E. coli BL21-CodonPlus-RIL, purified (Ni-NTA, Superdex 200 gel filtration)
In the case of B8, the “stoichiometry N” value is 2.
